From patent publication US20220348665A1 come the findings set out here.

Assay [1] has as its target human IGF1R, endogenous, on the surface of breast cancer cell lines (MCF-7, JIMT-1, BT474) (human) (UniProt P08069). Briefly: FACS on BT474 cells (FL1-H), anti-human FITC; same table: Untreated 1.8, 2nd Ab only 1.93.
Assay [2] has the same target. Briefly: FACS on JIMT-1 cells (FL1-H), anti-human FITC; same table: Untreated 1.36, 2nd Ab only 1.89.
The target is the same in assay [3]. Briefly: FACS on MCF-7 cells (FL1-H), anti-human FITC; same table: Untreated 2.51, 2nd Ab only 4.53.

IMC-A12 (antibody), sequence (VH): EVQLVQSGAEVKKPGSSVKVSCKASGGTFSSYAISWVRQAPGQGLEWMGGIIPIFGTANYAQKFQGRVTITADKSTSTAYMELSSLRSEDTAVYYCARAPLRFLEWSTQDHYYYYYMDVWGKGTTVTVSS
IMC-A12 (antibody), sequence (VL): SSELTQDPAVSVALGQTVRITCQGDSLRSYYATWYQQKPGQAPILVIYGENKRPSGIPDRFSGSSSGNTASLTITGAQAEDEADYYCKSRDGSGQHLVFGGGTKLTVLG

As for IMC-A12 (antibody), the MFI is 18.3 in assay [1], 23 in assay [2] and 40.1 in assay [3].
